Paper PMC9556784

Experiments:
[1] = system: PilW soluble domain (Clostridioides difficile R20291?); assay: EMSA; conditions: 25C: 10 ng DNA in 10 ul, 10 mM Tris-HCl pH 8.5, 50 mM NaCl, 1 mg/ml BSA, 30 min, 1.5% agarose; 4C: 500 ng DNA in 10 ul, 20 mM Tris-HCl pH 8.3, 100 mM NaCl …
[2] = system: PilJ soluble domain (Clostridioides difficile R20291?); assay: EMSA; conditions: 25C: 10 ng DNA in 10 ul, 10 mM Tris-HCl pH 8.5, 50 mM NaCl, 1 mg/ml BSA, 30 min, 1.5% agarose; 4C: 500 ng DNA in 10 ul, 20 mM Tris-HCl pH 8.3, 100 mM NaCl …

plasmid DNA (25C EMSA)
Kd [1]: 14.5 µM
Kd [2]: 2.2 µM
